Data on one substance can be found in publication PMC3160269.

Usually Kd stands for a measure of binding affinity in units of concentration.

The assay has as its target biotinylated soluble IA^b-p3K (mouse). Kind of assay: SPR.

In the case of soluble YAe62 TCR, the Kd was 9 µM.
